The assay addresses Torpedo nicotinic acetylcholine receptor (nAChR-enriched membranes) (Torpedo (species not stated)) (UniProt P02710).

“Pichia-expressed, purified recombinant α-bungarotoxin (rBgtx) (from UniProt P60615 22-95) (ligand)” registered a reduction in 125I-Bgtx bound of 45%.

(Values after patent US6753315.)
